The target in assay [1] is EBV gB protein ectodomain (24-683 aa) of the substituted M81 strain gB protein, C-terminal 6×His tag (EBV M81 strain) (UniProt P0C762). Nature of the assay: competition ELISA on coated gB: unlabelled primary antibody at 10 µg/mL, then HRP-labelled 3A3 as secondary.
Assay [2] shares this target. Put plainly: competition ELISA on coated gB: unlabelled primary antibody at 10 µg/mL, then HRP-labelled 3A5 as secondary. (In general: An ELISA detects its analyte on a solid surface through an enzyme-linked reagent.)
For assay [3] the target is unchanged. Put plainly: competition ELISA on coated gB: unlabelled primary antibody at 10 µg/mL, then HRP-labelled AMMO5 as secondary.

For the substance mouse monoclonal antibody 72A1, the competition rate in assay [1] was -1.4%; in assay [2] it was 8%; in assay [3], -9.3%.

For the origin of these results see US20240123058A1.
